Test results published in paper PMC4622665.
Positions count from the first letter of the chain named.

B1: Fpro0165 IgG (antibody, V domains shown)
VH: EVQLVESGGGLVKPGGSLRLSCAASGFTFSNAWMNWVRQAPGKGLEWVGRVKSKTDGGAADYAAPVKGRFTISRDDSKNTLYLQMNSLKTEDTAVYYCTTDQLGYDFWNGYYTDTLYYYFGMDVWGPGTTVTVSS
VL: DIVMTQSPLSLPVTPGEPASISCRSSQPLLAMDGHNYLDWYLQKPGQSPQVLIYQSKWRASGVPDRFSGSGSGTDFTLKISRVEAEDVGVYYCMQALQTPLTFGGGTKVEIK
B2: Fpro0067 IgG (antibody, V domains shown)
VH: B1 VH with V51I, N109S
VL: B1 VL
B3: Fpro0084 IgG (antibody, V domains shown)
VH: B1 VH with V51I, N109S
VL: B1 VL with P28Q, L30Q, M32Y, Q55L, S56G, K57S, W58N
B4: Fpro0025 IgG (antibody, V domains shown)
VH: B1 VH with V51I, N109S
VL: B1 VL with Q55L, S56G, K57S, W58N

How the values were obtained:
[1] = target: cynomolgus formyl peptide receptor 1 (cynomolgus monkey); assay: FMAT competition binding on cells
[2] = target: cynomolgus formyl peptide receptor 1 (cynomolgus monkey)

| Binder | IC50 [1] | IC50, inhibition of fMLFF-induced calcium release, cynomolgus FPR1 HEK cells [2] |
| --- | --- | --- |
| B1 | 20 nM | 12 nM |
| B2 | 13 nM |  |
| B3 | 13 nM |  |
| B4 | 33 nM |  |
